Test results: paper PMC5823874, “The structure of iPLA2β reveals dimeric active sites and suggests mechanisms of regulation and localization” (Nature Communications, 2018)
No end group written: not given here.

Target: Calmodulin (CaM), unmodified (UniProt P0DP23 1-149)
Experiment: fluorescence polarisation; synthetic FAM-labeled peptides of iPLA2β with CaM (Supplementary Figure 7h)
Conditions: both partners purified

Kd [µM] | Binder
2.5 ± 0.4 | RKGQGNKVKK (also: FAM label (position not given here)) [Synthetic FAM-labeled peptide corresponding to the 1-9-14 motif of iPLA2β]
5.9 ± 0.8 | AWSEMVGIQYFR (also: FAM label (position not given here)) [Synthetic FAM-labeled peptide corresponding to the IQ motif of iPLA2β]
